The source of these data is publication PMC7473840 (2018).

No end group written: not given here.

The target in the test is FMRP (Homo sapiens, UniProt Q06787).

The term Kd denotes the equilibrium constant for the complex coming apart. As to TSCPKIPSSPDLKKS (also: phosphoserine pS440 plus a second phosphosite, positions not given here), the dissociation constant (Kd) worked out at 0.42 µM. In other words, the sub-micromolar range.
For TSCPKIPSSPDLKKS (also: phosphoserine pS440, position in chain not given here) the value was 33.9 µM.
